Measurements taken from PMC5499601 (Nucleic Acids Research, 2017).
Positions count from the first letter of the chain named.

Assays:
Assay in all cases: EMSA
BsSpo0J N112S = target: T1, BsSpo0J N112S (UniProt P26497 1-282, N112S)
T1 sequence: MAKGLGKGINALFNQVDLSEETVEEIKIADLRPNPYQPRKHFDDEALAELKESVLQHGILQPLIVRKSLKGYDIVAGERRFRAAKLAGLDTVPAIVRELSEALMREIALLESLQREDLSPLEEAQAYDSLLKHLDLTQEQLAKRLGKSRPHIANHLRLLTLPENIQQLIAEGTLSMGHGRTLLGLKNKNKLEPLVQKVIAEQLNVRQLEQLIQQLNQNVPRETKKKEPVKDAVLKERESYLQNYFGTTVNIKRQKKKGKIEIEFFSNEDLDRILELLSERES

BsSpo0J F81A = target: T2, BsSpo0J F81A (UniProt P26497 1-282, F81A)
T2 sequence: T1 sequence with F81A, S112N

BsSpo0J R105A = target: T3, BsSpo0J R105A (UniProt P26497 1-282, R105A)
T3 sequence: T1 sequence with R105A, S112N

BsSpo0J R79A = target: T4, BsSpo0J R79A (UniProt P26497 1-282, R79A)
T4 sequence: T1 sequence with R79A, S112N

BsSpo0J L60E = target: T5, BsSpo0J L60E (UniProt P26497 1-282, L60E)
T5 sequence: T1 sequence with L60E, S112N

BsSpo0J M104A = target: T6, BsSpo0J M104A (UniProt P26497 1-282, M104A)
T6 sequence: T1 sequence with M104A, S112N

BsSpo0J V75A = target: T7, BsSpo0J V75A (UniProt P26497 1-282, V75A)
T7 sequence: T1 sequence with V75A, S112N

BsSpo0J Q140R = target: T8, BsSpo0J Q140R (UniProt P26497 1-282, Q140R)
T8 sequence: T1 sequence with S112N, Q140R

BsSpo0J R39A = target: T9, BsSpo0J R39A (UniProt P26497 1-282, R39A)
T9 sequence: T1 sequence with R39A, S112N

Measured: binding result

B1: 39-bp parS (dsDNA)
DNA 1: CAGTTGAATCAGAATGTTCCACGTGAAACAAAGAAAAAA
DNA 2: TTTTTTCTTTGTTTCACGTGGAACATTCTGATTCAACTG
binds: BsSpo0J N112S | BsSpo0J F81A | BsSpo0J R105A | BsSpo0J R79A | BsSpo0J L60E | BsSpo0J M104A | BsSpo0J V75A | BsSpo0J Q140R | BsSpo0J R39A
